Assay results published in article doi:10.1101/2022.07.11.499577 (bioRxiv, 2022).

B1: Epl1 with a TAP tag fused to the C-terminus (natural protein)
chain: MPTPSNAIEINDGSHKSGRSTRRSGSRSAHDDGLDSFSKGDSGAGASAGSSNSRFRHRKISVKQHLKIYLPNDLKHLDKDELQQREVVEIETGVEKNEEKEVHLHRILQMGSGHTKHKDYIPTPDASMTWNEYDKFYTGSFQETTSYIKFSATVEDCCGTNYNMDERDETFLNEQVNKGSSDILTEDEFEILCSSFEHAIHERQPFLSMDPESILSFEELKPTLIKSDMADFNLRNQLNHEINSHKTHFITQFDPVSQMNTRPLIQLIEKFGSKIYDYWRERKIEVNGYEIFPQLKFERPGEKEEIDPYVCFRRREVRHPRKTRRIDILNSQRLRALHQELKNAKDLALLVAKRENVSLNWINDELKIFDQRVKIKNLKRSLNISGEDDDLINHKRKRPTIVTVEQREAELRKAELKRAAAAAAAAKAKNNKRNNQLEDKSSRLTKQQQQQLLQQQQQQQQNALKTENGKQLANASSSSTSQPITSHVYVKLPSSKIPDIVLEDVDALLNSKEKNARKFVQEKMEKRKIEDADVFFNLTDDPFNPVFDMSLPKNFSTSNVPFASIASSKFQIDRSFYSSHLPEYLKGISDDIRIYDSNGRSRNKDNYNLDTKRIKKTELYDPFQENLEIHSREYPIKFRKRVGRSNIKYVDRMPNFTTSSTKSACSLMDFVDFDSIEKEQYSREGSNDTDSINVYDSKYDEFVRLYDKWKYDSPQNEYGIKFSDEPARLNQISNDTQVIRFGTMLGTKSYEQLREATIKYRRDYITRLKQKHIQHLQQQQQQQQQQQQQAQQQKQKSQNNNSNSSNSLKKLNDSLINSEAKQNSSITQKNSS
B2: Eaf1 (natural protein)
chain: MSSRPSSAVPNSASLSEDQSSDRSKFPKADDLIDERDRKLTELYCVSRLNQLLELTDENKLRKEIDAFLKKNDIRRGIRFDEASLPKLLHTAATPITKKKLKDVNLINVPNQRLSDSKMSRELPENSENVSVKSESHFVPSHDNSIRENMMDSLRPAEKTGGMWNKRPLESTMGGEEERHEKRQKMQSQSLESSNNSEMASLPISPRPPVPNALAHYTYYENIEYPPADPTEVQPAVKFKDPLIKNIMAKEIDTSDHYNENNVDALETVFLLMNDYIPSKIPQALPLAELKYMSQTLPLINLIPRAHKALTTNIINNALNEARITVVGSRIEELRRLGLWSLRQPKRFIDPWKQHNTHQNILLEEAKWMQADFKEGHKYKVAICTAMAQAIKDYWTYGEICCVKRKTLLPGKENKLSDDGRISEKSGRPSDTSRNDSDISIAGKDDIGIIANVDDITEKESAAANDNDENGKNEAGAKSDFDFADGLLSQEGAHDQIISSIDTKLLLKKPSSSSEVVLIQHEVAASSALIETEESKKELAPPFKLSIFVDELNTFEKTLIQDLPLYNGINEERPKKDDSLPFIPISKSVVSLDDNGFYKLLERQLIDEEPSISQLSKRRGMFYGNRRNHYLRPPAVPSLRYLQNRTPTIWLSEDDQELVKNINTYGYNWELISAHMTHRLTYSYLSNIERRTPWQCFERFVQLNERFNFSDLKGPRAHSAQQWLIEAHKFQQRQNRRISPLGVNTESIQRGHRRLRWASMFEAIRKCMKKRENTPRPNPTQPRKPLDCKNMKVPTPAEMSLLKAQRDEALRRDIQLRRTVKNRLQQRQQQSQQAHSSRAQSPIPSNGKSSSNLARNGQASAPRPNQKQYTEQDIIESYSRKLLEQKPDIGPEMALKAAKNYYRTLREQQQQLKQHQIQQQRQQLQEESSHVQQLQQLQPGSQAPPPKSSPSQSSLSNISNINSAPRIKSPTPQEILQRFQKQ
B3: Eaf2/Swc4 (natural protein)
chain: MSSSDIFDVLNIKQKSRSPTNGQVSVPSSSAANRPKPQVTGMQRELFNLLGENQPPVVIKSGNNFKEKMLSTSKPSPWSFVEFKANNSVTLRHWVKGSKELIGDTPKESPYSKFNQHLSIPSFTKEEYEAFMNENEGTQKSVESEKNHNENFTNEKKDESKNSWSFEEIEYLFNLCKKYDLRWFLIFDRYSYNNSRTLEDLKEKFYYTCRNYFKASDPSNPLLSSLNFSAEKEIERKKYLQRLLSRSAAEIAEEEALVVESKKFEMAAKRTLAERESLLRLLDSPHSDQTITQYLTSQGMSQLYNALLADKTRKRKHDLNIPENPWMKQQQQFAQHRQLQQLNVKKSEVKENLSPKKTKRQRQEMQTALKRKSESAYAEQLLKDFNSDERKALGVITHGEKLSPGVYLRSTKLSTFKPALQNKILAILQELSLPSRPVMPSFDVMERQEELLKKINTLIDLKKHVDKYEAGMSITK

Legend:
Eaf1 [1] = target: B2; experiment: affinity purification with mass spectrometry
Tra1 = Tra1 (S. cerevisiae, UniProt P38811 1-3744); experiment: cryo-EM structure
Eaf1 [2] = target: B2; experiment: cryo-EM structure

Tra1, sequence (P38811 whole entry): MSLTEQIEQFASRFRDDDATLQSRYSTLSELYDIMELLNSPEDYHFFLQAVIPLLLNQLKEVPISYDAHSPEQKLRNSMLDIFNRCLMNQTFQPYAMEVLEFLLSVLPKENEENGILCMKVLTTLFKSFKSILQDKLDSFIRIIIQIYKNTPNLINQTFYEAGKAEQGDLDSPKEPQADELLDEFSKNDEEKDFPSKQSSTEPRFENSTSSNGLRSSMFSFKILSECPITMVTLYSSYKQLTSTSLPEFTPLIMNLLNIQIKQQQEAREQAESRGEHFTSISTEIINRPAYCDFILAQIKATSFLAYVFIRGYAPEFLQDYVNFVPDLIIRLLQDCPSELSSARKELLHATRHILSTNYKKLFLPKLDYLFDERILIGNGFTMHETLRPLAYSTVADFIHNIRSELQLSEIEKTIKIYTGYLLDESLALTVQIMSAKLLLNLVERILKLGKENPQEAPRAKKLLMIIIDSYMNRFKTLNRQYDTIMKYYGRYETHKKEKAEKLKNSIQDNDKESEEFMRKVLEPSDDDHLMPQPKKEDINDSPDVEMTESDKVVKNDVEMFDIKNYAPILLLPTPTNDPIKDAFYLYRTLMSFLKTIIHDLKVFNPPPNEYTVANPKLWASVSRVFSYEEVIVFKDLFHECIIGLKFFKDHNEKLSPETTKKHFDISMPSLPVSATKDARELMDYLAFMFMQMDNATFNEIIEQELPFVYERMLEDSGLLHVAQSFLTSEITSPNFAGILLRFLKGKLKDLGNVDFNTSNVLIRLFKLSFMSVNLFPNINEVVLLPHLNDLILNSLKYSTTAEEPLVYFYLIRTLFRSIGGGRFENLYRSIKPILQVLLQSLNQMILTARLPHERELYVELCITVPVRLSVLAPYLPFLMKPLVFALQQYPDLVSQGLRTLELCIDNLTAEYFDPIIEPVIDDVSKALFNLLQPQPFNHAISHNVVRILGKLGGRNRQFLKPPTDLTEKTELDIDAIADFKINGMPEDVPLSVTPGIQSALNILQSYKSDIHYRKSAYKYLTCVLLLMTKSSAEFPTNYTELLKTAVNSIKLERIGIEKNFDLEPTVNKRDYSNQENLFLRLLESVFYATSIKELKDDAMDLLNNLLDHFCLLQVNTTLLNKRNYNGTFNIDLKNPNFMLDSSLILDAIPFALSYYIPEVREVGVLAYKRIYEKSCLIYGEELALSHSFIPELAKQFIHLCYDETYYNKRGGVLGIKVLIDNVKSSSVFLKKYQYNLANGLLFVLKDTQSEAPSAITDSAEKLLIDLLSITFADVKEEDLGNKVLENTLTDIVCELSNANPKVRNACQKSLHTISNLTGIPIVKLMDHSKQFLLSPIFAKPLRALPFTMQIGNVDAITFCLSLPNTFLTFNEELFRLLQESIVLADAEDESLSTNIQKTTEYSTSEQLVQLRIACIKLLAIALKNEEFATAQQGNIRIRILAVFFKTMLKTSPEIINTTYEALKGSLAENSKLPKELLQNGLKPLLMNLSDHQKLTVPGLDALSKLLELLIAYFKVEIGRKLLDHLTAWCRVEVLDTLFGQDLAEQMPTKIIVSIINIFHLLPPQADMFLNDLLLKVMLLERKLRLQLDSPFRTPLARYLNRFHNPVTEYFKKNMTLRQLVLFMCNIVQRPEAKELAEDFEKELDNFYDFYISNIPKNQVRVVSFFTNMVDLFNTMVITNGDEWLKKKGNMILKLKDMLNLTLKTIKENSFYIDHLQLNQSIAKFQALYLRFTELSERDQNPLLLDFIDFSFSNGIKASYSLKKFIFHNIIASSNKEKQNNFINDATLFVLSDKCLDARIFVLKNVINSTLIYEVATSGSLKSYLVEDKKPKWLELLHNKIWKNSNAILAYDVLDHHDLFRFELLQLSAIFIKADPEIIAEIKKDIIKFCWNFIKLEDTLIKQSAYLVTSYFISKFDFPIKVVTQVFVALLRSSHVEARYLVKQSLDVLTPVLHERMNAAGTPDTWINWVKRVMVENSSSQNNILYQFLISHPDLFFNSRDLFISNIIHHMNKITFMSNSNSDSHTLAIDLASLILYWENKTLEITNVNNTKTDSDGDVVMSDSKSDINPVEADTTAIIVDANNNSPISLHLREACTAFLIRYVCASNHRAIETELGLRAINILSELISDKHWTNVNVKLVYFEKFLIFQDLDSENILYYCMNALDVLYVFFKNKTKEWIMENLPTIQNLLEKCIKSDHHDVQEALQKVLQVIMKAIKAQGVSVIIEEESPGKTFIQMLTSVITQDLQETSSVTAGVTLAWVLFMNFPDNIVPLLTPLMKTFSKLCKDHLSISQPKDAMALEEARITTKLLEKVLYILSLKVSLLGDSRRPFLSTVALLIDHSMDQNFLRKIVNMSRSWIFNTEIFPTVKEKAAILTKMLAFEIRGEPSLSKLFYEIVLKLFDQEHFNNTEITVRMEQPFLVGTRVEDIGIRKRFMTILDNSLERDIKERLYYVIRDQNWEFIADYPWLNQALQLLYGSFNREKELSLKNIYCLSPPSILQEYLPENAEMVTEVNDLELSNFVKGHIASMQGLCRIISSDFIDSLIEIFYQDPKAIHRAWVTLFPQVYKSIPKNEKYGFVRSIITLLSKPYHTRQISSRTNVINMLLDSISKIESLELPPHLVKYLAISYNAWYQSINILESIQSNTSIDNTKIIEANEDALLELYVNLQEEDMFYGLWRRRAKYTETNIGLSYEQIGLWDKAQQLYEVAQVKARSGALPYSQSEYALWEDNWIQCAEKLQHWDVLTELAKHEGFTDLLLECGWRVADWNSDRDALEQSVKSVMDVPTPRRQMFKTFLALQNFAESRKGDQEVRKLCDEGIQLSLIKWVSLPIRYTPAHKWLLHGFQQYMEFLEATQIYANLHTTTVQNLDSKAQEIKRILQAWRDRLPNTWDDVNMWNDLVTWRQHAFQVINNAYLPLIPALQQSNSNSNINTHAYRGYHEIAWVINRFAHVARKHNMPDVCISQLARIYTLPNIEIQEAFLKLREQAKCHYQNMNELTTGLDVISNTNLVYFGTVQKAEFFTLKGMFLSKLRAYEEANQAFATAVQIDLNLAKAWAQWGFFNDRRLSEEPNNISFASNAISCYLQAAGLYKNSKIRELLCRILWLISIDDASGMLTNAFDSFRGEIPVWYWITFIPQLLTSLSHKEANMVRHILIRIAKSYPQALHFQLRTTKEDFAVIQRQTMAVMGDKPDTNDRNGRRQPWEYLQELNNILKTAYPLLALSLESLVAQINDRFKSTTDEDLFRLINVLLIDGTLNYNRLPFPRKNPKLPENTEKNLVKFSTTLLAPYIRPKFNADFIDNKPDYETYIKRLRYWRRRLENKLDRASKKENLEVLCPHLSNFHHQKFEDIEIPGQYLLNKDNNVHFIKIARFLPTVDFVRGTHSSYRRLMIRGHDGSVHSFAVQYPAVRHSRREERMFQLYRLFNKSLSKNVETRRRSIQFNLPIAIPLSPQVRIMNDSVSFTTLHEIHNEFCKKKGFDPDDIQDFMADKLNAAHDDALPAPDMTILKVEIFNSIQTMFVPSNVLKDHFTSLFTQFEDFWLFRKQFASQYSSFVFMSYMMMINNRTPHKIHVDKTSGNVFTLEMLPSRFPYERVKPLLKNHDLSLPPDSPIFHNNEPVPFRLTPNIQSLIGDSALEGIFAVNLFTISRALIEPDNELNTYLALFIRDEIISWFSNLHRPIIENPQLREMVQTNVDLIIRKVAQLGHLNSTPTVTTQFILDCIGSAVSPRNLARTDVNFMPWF

Binder | binding result (Eaf1 [1]) | binding result (Tra1) | binding result (Eaf1 [2])
B1 | binds |  | 
B2 |  | binds | 
B3 |  | binds | binds
